Measurements as given in the Immune Epitope Database (IEDB).

Tests used:
[1] = biological target: HLA-A*26:02; experiment: IEDB peptide-MHC binding, purified MHC/direct/fluorescence; filed as Kd, often an IC50 or EC50 that approximates it; ≥ and ≤ were set here for values at or beyond the usual limits of such assays; conditions: source organism: Coxiella burnetii Q321
[2] = biological target: HLA-B*58:01; experiment: as above
[3] = biological target: HLA-A*26:01; experiment: as above
[4] = biological target: HLA-A*26:03; experiment: as above; conditions: source organism: Coxiella burnetii Q321
[5] = biological target: HLA-B*15:17; experiment: as above
[6] = biological target: HLA-B*48:01; experiment: as above
[7] = biological target: HLA-A*69:01; experiment: as above
[8] = biological target: HLA-B*27:05; experiment: as above
[9] = biological target: HLA-A*11:01; experiment: as above
[10] = biological target: HLA-A*31:01; experiment: as above
[11] = biological target: HLA-A*03:01; experiment: as above
[12] = biological target: HLA-B*57:01; experiment: as above
[13] = biological target: HLA-B*40:01; experiment: as above
[14] = biological target: HLA-B*46:01; experiment: as above
[15] = biological target: HLA-B*15:01; experiment: IEDB peptide-MHC binding, purified MHC/competitive/fluorescence; filed as Kd, often an IC50 or EC50 that approximates it; ≥ and ≤ were set here for values at or beyond the usual limits of such assays
[16] = biological target: HLA-A*01:01; experiment: as above; conditions: source organism: Coxiella burnetii RSA 493
[17] = biological target: HLA-A*30:01; experiment: as above; conditions: source organism: Coxiella burnetii RSA 493
[18] = biological target: HLA-A*02:01; experiment: as above
[19] = biological target: HLA-B*39:01; experiment: as above
[20] = biological target: HLA-B*08:01; experiment: as above; conditions: source organism: Coxiella burnetii RSA 493
[21] = biological target: HLA-B*18:01; experiment: IEDB peptide-MHC binding, purified MHC/direct/fluorescence; filed as Kd, often an IC50 or EC50 that approximates it; ≥ and ≤ were set here for values at or beyond the usual limits of such assays; conditions: source organism: Mycobacterium tuberculosis
[22] = biological target: HLA-B*51:01; experiment: as above; conditions: source organism: Mycobacterium tuberculosis
[23] = biological target: HLA-A*01:01; experiment: as above; conditions: source organism: Mycobacterium tuberculosis
[24] = biological target: HLA-A*02:01; experiment: as above; conditions: source organism: Mycobacterium tuberculosis
[25] = biological target: HLA-B*38:01; experiment: as above; conditions: source organism: Mycobacterium tuberculosis str. Haarlem
[26] = biological target: HLA-B*08:02; experiment: as above; conditions: source organism: Mycobacterium tuberculosis str. Haarlem
[27] = biological target: HLA-B*15:09; experiment: as above; conditions: source organism: Mycobacterium tuberculosis str. Haarlem
[28] = biological target: HLA-B*08:01; experiment: as above; conditions: source organism: Mycobacterium tuberculosis str. Haarlem
[29] = biological target: HLA-B*83:01; experiment: IEDB peptide-MHC binding, purified MHC/competitive/fluorescence; filed as Kd, often an IC50 or EC50 that approximates it; ≥ and ≤ were set here for values at or beyond the usual limits of such assays; conditions: source organism: Mycobacterium tuberculosis C
[30] = biological target: HLA-B*45:06; experiment: as above; conditions: source organism: Mycobacterium tuberculosis C
[31] = biological target: HLA-B*15:42; experiment: as above; conditions: source organism: Mycobacterium tuberculosis C
[32] = biological target: HLA-A*02:19; experiment: IEDB peptide-MHC binding, purified MHC/direct/fluorescence; filed as Kd, often an IC50 or EC50 that approximates it; ≥ and ≤ were set here for values at or beyond the usual limits of such assays; conditions: source organism: Zaire ebolavirus
[33] = biological target: HLA-A*02:16; experiment: as above; conditions: source organism: Zaire ebolavirus
[34] = biological target: HLA-A*24:03; experiment: as above; conditions: source organism: Zaire ebolavirus
[35] = biological target: HLA-A*02:12; experiment: as above; conditions: source organism: Zaire ebolavirus
[36] = biological target: HLA-A*23:01; experiment: as above; conditions: source organism: Zaire ebolavirus
[37] = biological target: HLA-A*02:03; experiment: as above; conditions: source organism: Zaire ebolavirus
[38] = biological target: HLA-B*15:01; experiment: IEDB peptide-MHC binding, purified MHC/competitive/fluorescence; ≥ and ≤ were set here for values at or beyond the usual limits of such assays; conditions: source organism: Zaire ebolavirus
[39] = biological target: HLA-A*01:01; experiment: as above; conditions: source organism: Zaire ebolavirus
[40] = biological target: HLA-B*07:02; experiment: as above; conditions: source organism: Zaire ebolavirus
[41] = biological target: HLA-A*02:01; experiment: as above; conditions: source organism: Zaire ebolavirus
[42] = biological target: HLA-A*11:01; experiment: as above; conditions: source organism: Zaire ebolavirus
[43] = biological target: HLA-A*03:01; experiment: as above; conditions: source organism: Zaire ebolavirus
[44] = biological target: HLA-A*24:02; experiment: as above; conditions: source organism: Zaire ebolavirus
[45] = biological target: HLA-A*26:01; experiment: IEDB peptide-MHC binding, purified MHC/competitive/fluorescence; filed as Kd, often an IC50 or EC50 that approximates it; ≥ and ≤ were set here for values at or beyond the usual limits of such assays; conditions: source organism: Zaire ebolavirus
[46] = biological target: HLA-B*35:01; experiment: as above; conditions: source organism: Zaire ebolavirus
[47] = biological target: HLA-B*27:03; experiment: as above; conditions: source organism: Zaire ebolavirus
[48] = biological target: HLA-A*69:01; experiment: as above; conditions: source organism: Zaire ebolavirus
[49] = biological target: HLA-B*57:01; experiment: as above; conditions: source organism: Zaire ebolavirus
[50] = biological target: HLA-B*46:01; experiment: as above; conditions: source organism: Zaire ebolavirus
[51] = source organism: Coxiella burnetii
[52] = source organism: Coxiella burnetii RSA 493
[53] = source organism: Mycobacterium tuberculosis
[54] = source organism: Zaire ebolavirus

Sequence: EIYRTLYGL
- Kd [1]: 0.006 µM
- Kd [2, 51]: ≥ 20 µM
- Kd ([3]; source organism: Coxiella burnetii Q321): 0.067 µM
- Kd [4]: 0.182 µM
- Kd [5, 51]: 0.384 µM
- Kd [6, 51]: ≥ 20 µM
- Kd [7, 51]: 0.0014 µM
- Kd [8, 51]: ≥ 20 µM
- Kd [9, 51]: ≥ 20 µM
- Kd [10, 51]: ≥ 20 µM
- Kd [11, 51]: ≥ 20 µM
- Kd [12, 51]: ≥ 20 µM
- Kd [13, 51]: ≥ 20 µM
- Kd [14, 51]: ≥ 20 µM
- Kd [15, 52]: ≥ 20 µM
- Kd [16]: 4.29 µM
- Kd [17]: 2.47 µM
- Kd [18, 52]: ≥ 20 µM
- Kd [19, 52]: 2.74 µM
- Kd [20]: 7 µM

Sequence: RPAGARAAF
- Kd [21]: 11.8 µM
- Kd [22]: ≥ 20 µM
- Kd [23]: ≥ 20 µM
- Kd [2, 53]: ≥ 20 µM
- Kd ([3]; source organism: Mycobacterium tuberculosis str. Haarlem): ≥ 20 µM
- Kd [5, 53]: ≥ 20 µM
- Kd [6, 53]: ≥ 20 µM
- Kd [24]: ≥ 20 µM
- Kd [25]: ≥ 20 µM
- Kd [7, 53]: ≥ 20 µM
- Kd [8, 53]: ≥ 20 µM
- Kd [26]: ≥ 20 µM
- Kd [9, 53]: ≥ 20 µM
- Kd [10, 53]: ≥ 20 µM
- Kd [27]: ≥ 20 µM
- Kd [11, 53]: ≥ 20 µM
- Kd [28]: 6.85 µM
- Kd [12, 53]: ≥ 20 µM
- Kd [13, 53]: ≥ 20 µM
- Kd [14, 53]: ≥ 20 µM
- Kd ([15]; source organism: Mycobacterium tuberculosis C): ≥ 20 µM
- Kd [29]: 0.245 µM
- Kd [30]: ≥ 5 µM
- Kd [31]: ≥ 5 µM

Sequence: TVAPPAPVY
- Kd [2, 54]: 1.1 µM
- Kd [32]: ≥ 20 µM
- Kd [33]: ≥ 20 µM
- Kd [34]: ≥ 20 µM
- Kd [35]: ≥ 20 µM
- Kd [36]: ≥ 20 µM
- Kd [37]: ≥ 20 µM
- IC50 [38]: 8.09 µM
- IC50 [39]: 18.2 µM
- IC50 [40]: ≥ 138 µM
- IC50 [41]: ≥ 119 µM
- IC50 [42]: 0.276 µM
- IC50 [43]: 6.32 µM
- IC50 [44]: 5.17 µM
- Kd [45]: ≥ 20 µM
- Kd [46]: 0.0002 µM
- Kd [47]: ≥ 20 µM
- Kd [18, 54]: ≥ 20 µM
- Kd [19, 54]: ≥ 20 µM
- Kd [48]: ≥ 20 µM
- Kd [49]: ≥ 20 µM
- Kd [50]: ≥ 20 µM
